Experimental data: patent US20190015518A1, “DRUG DELIVERY COMPOSITIONS AND METHODS” (priority 2016, published 2019)

What was measured:
[1] = Urinalysis of a healthy dog given 1.5 mg/kg on day 1 and 2.0 mg/kg on day 70, sub-mucosa; type: in vivo
Procedure: (§1) Before each dose, the dog was examined by clinical chemistry, hematology, and urinalysis. Additional examinations of clinical chemistry and hematology were performed on days 7, 14, and 42 after the first dose. Additional tests of urinalysis were performed on days 7 and 14 after the first dose. The potential drug-induced toxicities were monitored for 56 days after the second dose. Specifically, clinical chemistry and urinalysis were performed on days 7, 14, 21, and 56, and hematology was performed on days 7, 14, and 56 after the second dose to evaluate the tolerability and toxicity of the formulation.
Urianlyses were performed at pre- and post-dose for both injections. The injections were given via the sub-mucosa in the mouth.

[2] = Hematology of a healthy dog given 1.5 mg/kg on day 1 and 2.0 mg/kg on day 70, sub-mucosa; type: in vivo
Procedure: as §1
Hematology examinations were performed at pre- and post-dose for both injections. The injections were given via the sub-mucosa in the mouth.

HA-cis-[Pt(NH3)2(N^α-Acetyl-L-Lysine)] [75HA-Lys-Pt]
Urobilinogen ([1]; 2 mg/kg, 7 days after): 0.2 E.U./dL
urine Bilirubin ([1]; 2 mg/kg, 7 days after): Moderate
urine Blood ([1]; 2 mg/kg, 7 days after): Negative
urine Clarity ([1]; 2 mg/kg, 7 days after): Clear
urine Color ([1]; 2 mg/kg, 7 days after): Dark Yellow
urine Glucose ([1]; 2 mg/kg, 7 days after): Negative
urine Ketones ([1]; 2 mg/kg, 7 days after): Negative
urine Leukocytes ([1]; 2 mg/kg, 7 days after): Negative
urine Nitrite ([1]; 2 mg/kg, 7 days after): Negative
urine Protein ([1]; 2 mg/kg, 7 days after): 30 mg/dL
urine Specific Gravity ([1]; 2 mg/kg, 7 days after): 1.053
urine pH ([1]; 2 mg/kg, 7 days after): 7.0
Urobilinogen ([1]; 2 mg/kg, 14 days after): 0.2 E.U./dL
urine Bilirubin ([1]; 2 mg/kg, 14 days after): Negative
urine Blood ([1]; 2 mg/kg, 14 days after): Large
urine Clarity ([1]; 2 mg/kg, 14 days after): Clear
urine Color ([1]; 2 mg/kg, 14 days after): Light Yellow
urine Glucose ([1]; 2 mg/kg, 14 days after): 100 mg/dL
urine Ketones ([1]; 2 mg/kg, 14 days after): Negative
urine Leukocytes ([1]; 2 mg/kg, 14 days after): Negative
urine Nitrite ([1]; 2 mg/kg, 14 days after): Negative
urine Protein ([1]; 2 mg/kg, 14 days after): ≥300 mg/dL
urine Specific Gravity ([1]; 2 mg/kg, 14 days after): 1.010
urine pH ([1]; 2 mg/kg, 14 days after): 7.5
Urobilinogen ([1]; 2 mg/kg, 21 days after): 1.0 E.U./dL
urine Bilirubin ([1]; 2 mg/kg, 21 days after): Moderate
urine Blood ([1]; 2 mg/kg, 21 days after): Small
urine Clarity ([1]; 2 mg/kg, 21 days after): Clear
urine Color ([1]; 2 mg/kg, 21 days after): Dark Orange
urine Glucose ([1]; 2 mg/kg, 21 days after): Negative
urine Ketones ([1]; 2 mg/kg, 21 days after): Trace
urine Leukocytes ([1]; 2 mg/kg, 21 days after): Negative
urine Nitrite ([1]; 2 mg/kg, 21 days after): Negative
urine Protein ([1]; 2 mg/kg, 21 days after): 30 mg/dL
urine Specific Gravity ([1]; 2 mg/kg, 21 days after): 1.044
urine pH ([1]; 2 mg/kg, 21 days after): 7.0
Urobilinogen ([1]; 2 mg/kg, 56 days after): 1.0 E.U./dL
urine Bilirubin ([1]; 2 mg/kg, 56 days after): Moderate
urine Blood ([1]; 2 mg/kg, 56 days after): Large
urine Clarity ([1]; 2 mg/kg, 56 days after): Clear
urine Color ([1]; 2 mg/kg, 56 days after): Dark Orange
urine Glucose ([1]; 2 mg/kg, 56 days after): Negative
urine Ketones ([1]; 2 mg/kg, 56 days after): Negative
urine Leukocytes ([1]; 2 mg/kg, 56 days after): Negative
urine Nitrite ([1]; 2 mg/kg, 56 days after): Negative
urine Protein ([1]; 2 mg/kg, 56 days after): 30 mg/dL
urine Specific Gravity ([1]; 2 mg/kg, 56 days after): 1.030
urine pH ([1]; 2 mg/kg, 56 days after): 8.0
Urobilinogen ([1]; […], 7 days after): 0.2 E.U./dL
urine Bilirubin ([1]; […], 7 days after): Negative
urine Blood ([1]; […], 7 days after): Negative
urine Clarity ([1]; […], 7 days after): Cloudy
urine Color ([1]; […], 7 days after): Yellow
urine Glucose ([1]; […], 7 days after): Negative
urine Ketones ([1]; […], 7 days after): Negative
urine Leukocytes ([1]; […], 7 days after): Negative
urine Nitrite ([1]; […], 7 days after): Negative
urine Protein ([1]; […], 7 days after): Negative
urine Specific Gravity ([1]; […], 7 days after): 1.023
urine pH ([1]; […], 7 days after): 8.0
Urobilinogen ([1]; […], 14 days): 0.2 E.U./dL
urine Blood ([1]; […], 14 days): Large
urine Clarity ([1]; […], 14 days): Cloudy
urine Color ([1]; […], 14 days): Yellow
urine Glucose ([1]; […], 14 days): Negative
urine Ketones ([1]; […], 14 days): Negative
urine Leukocytes ([1]; […], 14 days): Negative
urine Nitrite ([1]; […], 14 days): Negative
urine Protein ([1]; […], 14 days): 30 mg/dL
urine Specific Gravity ([1]; […], 14 days): 1.038
urine pH ([1]; […], 14 days): 6.5
long-term renal damage ([1]; healthy dog): did not appear to cause long-term renal damage
Differential white blood cell count, % BASO ([2]; 2 mg/kg, 7 days after): 0.9%
Differential white blood cell count, % EOS ([2]; 2 mg/kg, 7 days after): 1.9%
Differential white blood cell count, % LUC ([2]; 2 mg/kg, 7 days after): 0.8%
Differential white blood cell count, % LYMPH ([2]; 2 mg/kg, 7 days after): 29%
Differential white blood cell count, % MONO ([2]; 2 mg/kg, 7 days after): 7.5%
Differential white blood cell count, % NEUT ([2]; 2 mg/kg, 7 days after): 60%
Hematocrit ([2]; 2 mg/kg, 7 days after): 38%
Hemoglobin ([2]; 2 mg/kg, 7 days after): 12.7 g/dL
Hemoglobin distribution width ([2]; 2 mg/kg, 7 days after): 1.84 g/dL
Mean corpuscular (cell) hemoglobin ([2]; 2 mg/kg, 7 days after): 21.9 pg
Mean corpuscular (cell) hemoglobin concentration ([2]; 2 mg/kg, 7 days after): 33.4 g/dL
Mean corpuscular (cell) volume ([2]; 2 mg/kg, 7 days after): 65.6 fL
Platelet count ([2]; 2 mg/kg, 7 days after): 36 10^3/μL
Red blood cell count ([2]; 2 mg/kg, 7 days after): 5.79 10^6/μL
Red cell distribution width ([2]; 2 mg/kg, 7 days after): 13.5%
Reticulocyte count ([2]; 2 mg/kg, 7 days after): 1.59%
White blood cell count ([2]; 2 mg/kg, 7 days after): 8.2 10^3/μL
Differential white blood cell count, % BASO ([2]; 2 mg/kg, 14 days after): 0.5%
Differential white blood cell count, % EOS ([2]; 2 mg/kg, 14 days after): 3.4%
Differential white blood cell count, % LUC ([2]; 2 mg/kg, 14 days after): 0.6%
Differential white blood cell count, % LYMPH ([2]; 2 mg/kg, 14 days after): 28.5%
Differential white blood cell count, % MONO ([2]; 2 mg/kg, 14 days after): 4.3%
Differential white blood cell count, % NEUT ([2]; 2 mg/kg, 14 days after): 62.7%
Hematocrit ([2]; 2 mg/kg, 14 days after): 35.6%
Hemoglobin ([2]; 2 mg/kg, 14 days after): 11.8 g/dL
Hemoglobin distribution width ([2]; 2 mg/kg, 14 days after): 2.33 g/dL
Mean corpuscular (cell) hemoglobin ([2]; 2 mg/kg, 14 days after): 21.6 pg
Mean corpuscular (cell) hemoglobin concentration ([2]; 2 mg/kg, 14 days after): 33.1 g/dL
Mean corpuscular (cell) volume ([2]; 2 mg/kg, 14 days after): 65.2 fL
Platelet count ([2]; 2 mg/kg, 14 days after): 232 10^3/μL
Red blood cell count ([2]; 2 mg/kg, 14 days after): 5.47 10^6/μL
Red cell distribution width ([2]; 2 mg/kg, 14 days after): 14.2%
Reticulocyte count ([2]; 2 mg/kg, 14 days after): 3.2%
White blood cell count ([2]; 2 mg/kg, 14 days after): 10.43 10^3/μL
Differential white blood cell count, % BASO ([2]; 2 mg/kg, 56 days after): 0.7%
Differential white blood cell count, % EOS ([2]; 2 mg/kg, 56 days after): 4.3%
Differential white blood cell count, % LUC ([2]; 2 mg/kg, 56 days after): 0.5%
Differential white blood cell count, % LYMPH ([2]; 2 mg/kg, 56 days after): 26.6%
Differential white blood cell count, % NEUT ([2]; 2 mg/kg, 56 days after): 63.4%
Hematocrit ([2]; 2 mg/kg, 56 days after): 36.9%
Hemoglobin ([2]; 2 mg/kg, 56 days after): 12.1 g/dL
Hemoglobin distribution width ([2]; 2 mg/kg, 56 days after): 2.04 g/dL
Mean corpuscular (cell) hemoglobin ([2]; 2 mg/kg, 56 days after): 21.4 pg
Mean corpuscular (cell) hemoglobin concentration ([2]; 2 mg/kg, 56 days after): 32.8 g/dL
Mean corpuscular (cell) volume ([2]; 2 mg/kg, 56 days after): 65.4 fL
Red blood cell count ([2]; 2 mg/kg, 56 days after): 5.64 10^6/μL
Red cell distribution width ([2]; 2 mg/kg, 56 days after): 13.7%
Reticulocyte count ([2]; 2 mg/kg, 56 days after): 1.3%
White blood cell count ([2]; 2 mg/kg, 56 days after): 11.3 10^3/μL
Differential white blood cell count, % BASO ([2]; […], 7 days after): 0.7%
Differential white blood cell count, % EOS ([2]; […], 7 days after): 2.0%
Differential white blood cell count, % LUC ([2]; […], 7 days after): 0.6%
Differential white blood cell count, % LYMPH ([2]; […], 7 days after): 37.6%
Differential white blood cell count, % NEUT ([2]; […], 7 days after): 55.4%
Hematocrit ([2]; […], 7 days after): 37.8%
Hemoglobin ([2]; […], 7 days after): 12.7 g/dL
Hemoglobin distribution width ([2]; […], 7 days after): 2.08 g/dL
Mean corpuscular (cell) hemoglobin ([2]; […], 7 days after): 23.0 pg
Mean corpuscular (cell) hemoglobin concentration ([2]; […], 7 days after): 33.6 g/dL
Mean corpuscular (cell) volume ([2]; […], 7 days after): 68.4 fL
Platelets (footnote a) ([2]; […], 7 days after): ^aPlatelets appear adequate. Platelet clumps observed, number not reported.
Red blood cell count ([2]; […], 7 days after): 5.53 10^6/μL
Red cell distribution width ([2]; […], 7 days after): 13.3%
Reticulocyte count ([2]; […], 7 days after): 1.40%
White blood cell count ([2]; […], 7 days after): 7.69 10^3/μL
Differential white blood cell count, % BASO ([2]; […], 14 days): 0.7%
Differential white blood cell count, % EOS ([2]; […], 14 days): 2.0%
Differential white blood cell count, % LUC ([2]; […], 14 days): 0.6%
Differential white blood cell count, % LYMPH ([2]; […], 14 days): 37.6%
Differential white blood cell count, % NEUT ([2]; […], 14 days): 55.4%
Hematocrit ([2]; […], 14 days): 38.2%
Hemoglobin ([2]; […], 14 days): 12.6 g/dL
Hemoglobin distribution width ([2]; […], 14 days): 2.29 g/dL
Mean corpuscular (cell) hemoglobin ([2]; […], 14 days): 22.6 pg
Mean corpuscular (cell) hemoglobin concentration ([2]; […], 14 days): 33.0 g/dL
Mean corpuscular (cell) volume ([2]; […], 14 days): 68.7 fL
Platelet count ([2]; […], 14 days): 307 10^3/μL
Red blood cell count ([2]; […], 14 days): 5.56 10^6/μL
Red cell distribution width ([2]; […], 14 days): 13.7%
Reticulocyte count ([2]; […], 14 days): 1.84%
White blood cell count ([2]; […], 14 days): 12.91 10^3/μL
Differential white blood cell count, % BASO ([2]; […], 42 days): 1.4%
Differential white blood cell count, % EOS ([2]; […], 42 days): 2.0%
Differential white blood cell count, % LUC ([2]; […], 42 days): 0.8%
Differential white blood cell count, % LYMPH ([2]; […], 42 days): 37.6%
Differential white blood cell count, % MONO ([2]; […], 42 days): 5.1%
Differential white blood cell count, % NEUT ([2]; […], 42 days): 53.1%
Hematocrit ([2]; […], 42 days): 46.4%
Hemoglobin ([2]; […], 42 days): 15.3 g/dL
Hemoglobin distribution width ([2]; […], 42 days): 1.71 g/dL
Mean corpuscular (cell) hemoglobin ([2]; […], 42 days): 22.4 pg
Mean corpuscular (cell) hemoglobin concentration ([2]; […], 42 days): 33.0 g/dL
Mean corpuscular (cell) volume ([2]; […], 42 days): 67.9 fL
Platelet count ([2]; […], 42 days): 307 10^3/μL
Red blood cell count ([2]; […], 42 days): 6.83 10^6/μL
Red cell distribution width ([2]; […], 42 days): 12.4%
White blood cell count ([2]; […], 42 days): 10.82 10^3/μL
